Experimental data reported in patent US9074018B2, “Reconstituted pulmonary surfactants” (CHIESI FARMACEUTICI S.p.A, priority 2012, dated 2015).

Assay: Viscosity of the surfactant preparation
Assay type: physicochemical
Conditions: mixed with a phospholipid mixture consisting of DPPC:POPG 7:3 (w/w)
Excerpt: Advantageously the viscosity of said formulations is less than 20 centiPoise (cP), preferably less than 15 cP, upon determination with a common viscometer available on the market according to methods known in the art.

Sequence: CWLCRALIKRFNRYLTPQLVCRLVLRC [ox Mini-B27, SP-B analogue of formula (III), shorter analogue of ox Mini-B(Leu)]
- viscosity of the preparation: viscous
